Measured values published in paper PMC4052440.
Where a chain is given by its changes, count along the chain named. Numbers in names are those of the source.

Substrate: Nc1ncnc2c1ncn2[C@@H]1O[C@H](COP(=O)(O)OP(=O)(O)OP(=O)(O)O)[C@@H](O)[C@H]1O
Test: ATPase assay
Assay type: biochemical, Saccharomyces cerevisiae
Settings: Mg-ATP
[1] = no cluster, table prints the error as ± 5.3

B1: yeast Atm1p (Saccharomyces cerevisiae S288C) (protein)
chain: SPVIFTVSKLSTQRPLLFNSAVNLWNQAQKDITHKKSVEQFSSAPKVKTQVKKTSKAPTLSELKILKDLFRYIWPKGNNKVRIRVLIALGLLISAKILNVQVPFFFKQTIDSMNIAWDDPTVALPAAIGLTILCYGVARFGSVLFGELRNAVFAKVAQNAIRTVSLQTFQHLMKLDLGWHLSRQTGGLTRAMDRGTKGISQVLTAMVFHIIPISFEISVVCGILTYQFGASFAAITFSTMLLYSIFTIKTTAWRTHFRRDANKADNKAASVALDSLINFEAVKYFNNEKYLADKYNGSLMNYRDSQIKVSQSLAFLNSGQNLIFTTALTAMMYMGCTGVIGGNLTVGDLVLINQLVFQLSVPLNFLGSVYRDLKQSLIDMETLFKLRKNEVKIKNAERPLMLPENVPYDITFENVTFGYHPDRKILKNASFTIPAGWKTAIVGSSGSGKSTILKLVFRFYDPESGRILINGRDIKEYDIDALRKVIGVVPQDTPLFNDTIWENVKFGRIDATDEEVITVVEKAQLAPLIKKLPQGFDTIVGERGLMISGGEKQRLAIARVLLKNARIMFFDEATSALDTHTEQALLRTIRDNFTSGSRTSVYIAHRLRTIADADKIIVLDNGRVREEGKHLELLAMPGSLYRELWTIQEDLDHLENELKDQQEL
Km [1]: 54.6 ± 0.4 µM | kcat [1]: 0.0322 ± 0.0005 s⁻¹

B2: yeast Atm1p (Saccharomyces cerevisiae S288C; R284E) (protein)
chain: B1 chain with R258E
Km (from the cluster-activation fit, table title prints R48E, column R284E): 55.0 ± 16.5 µM
